From patent US20200262898A1 come the findings set out here.

Experiment [1] concerns the target Fc-binding protein (the ZZ domain of ProA). Kind of experiment: flow cytometry on cells expressing the Fc-binding ZZ domain on their surface; given as a measure of expression.
The target of another experiment is T1, CD151 (UniProt P48509).
T1 sequence (looked up): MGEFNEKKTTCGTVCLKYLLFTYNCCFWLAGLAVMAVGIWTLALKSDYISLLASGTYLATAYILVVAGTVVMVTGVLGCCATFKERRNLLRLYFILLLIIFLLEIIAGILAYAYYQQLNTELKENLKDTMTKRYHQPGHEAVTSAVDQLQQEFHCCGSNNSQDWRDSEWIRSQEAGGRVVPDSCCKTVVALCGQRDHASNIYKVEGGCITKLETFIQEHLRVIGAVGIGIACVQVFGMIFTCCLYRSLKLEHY
Description: flow cytometry on cells transfected with the target; signal over mock-transfected cells (background = 1.0).

The target of a further experiment is T2, CD81 (UniProt P60033).
T2 sequence (looked up): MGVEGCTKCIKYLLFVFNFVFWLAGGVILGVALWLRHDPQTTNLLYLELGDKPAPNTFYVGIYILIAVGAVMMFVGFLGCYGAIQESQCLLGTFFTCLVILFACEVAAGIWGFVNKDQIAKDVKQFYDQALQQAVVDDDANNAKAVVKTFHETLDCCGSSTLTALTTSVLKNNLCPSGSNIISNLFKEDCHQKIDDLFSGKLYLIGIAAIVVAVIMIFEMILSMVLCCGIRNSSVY
Described as above.

In the next experiment the target is T3, CD59 (UniProt P13987).
T3 sequence (looked up): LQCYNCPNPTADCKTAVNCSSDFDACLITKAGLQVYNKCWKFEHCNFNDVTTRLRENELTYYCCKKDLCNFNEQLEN
Described as above.

In another experiment the target is CD63 (UniProt P08962). The experiment is described as above.
In a further experiment the target is T4, IGSF8 (UniProt Q969P0).
T4 sequence (looked up): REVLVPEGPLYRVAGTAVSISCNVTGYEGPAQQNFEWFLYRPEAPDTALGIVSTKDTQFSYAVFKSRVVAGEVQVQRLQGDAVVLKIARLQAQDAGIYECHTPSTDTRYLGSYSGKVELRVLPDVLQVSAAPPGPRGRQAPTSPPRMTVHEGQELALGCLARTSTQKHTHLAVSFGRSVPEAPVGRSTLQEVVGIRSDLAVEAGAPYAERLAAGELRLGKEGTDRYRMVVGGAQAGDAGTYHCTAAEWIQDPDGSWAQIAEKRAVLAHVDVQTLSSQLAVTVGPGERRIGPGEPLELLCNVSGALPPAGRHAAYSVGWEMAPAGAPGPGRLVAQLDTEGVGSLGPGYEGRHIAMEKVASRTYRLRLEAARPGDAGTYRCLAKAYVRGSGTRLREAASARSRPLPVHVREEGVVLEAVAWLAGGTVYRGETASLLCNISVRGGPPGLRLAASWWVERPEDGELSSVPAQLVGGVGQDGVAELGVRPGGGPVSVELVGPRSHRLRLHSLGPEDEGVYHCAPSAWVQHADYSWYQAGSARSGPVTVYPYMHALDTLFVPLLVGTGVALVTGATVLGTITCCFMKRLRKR
Described as above.

The target of another experiment is CD147 (UniProt P35613). Described as above.

B1: Antibody of common light chain F10 (F10chicken) paired with the heavy chain against CD151 (antibody, V domains shown)
VH: AVTLDESGGGLQMPGGALSLVCKASGFTFSSYGMEWVRQAPGKGLEWVAGISSGGGSTDYGTAVKGRATISRDNGQSTVRLQLNNLRAEDTGTYFCAKSAYGGTWDGDDIDAWGHGTEVIVSS
VL: ALTQPSSVSANPGETVKITCSGGYNGHYGWYQQKSPGSAPVTVIYSNNQRPSNIPSRFSGSTSGSTSTLTITGVRAEDEAVYFCGGYDSSAGIFGAGTTLTVL
Take B1: the S:B Expression in experiment [1] is 13.7 S:B. Further, in the experiment with CD151, the S:B Binding was 25.1 S:B.

B2: Antibody of common light chain F10 (F10chicken) paired with the heavy chain against CD81 (antibody, V domains shown)
VH: AVTLDESGGGLQTPGGALSLVCKASGFSIGDYNMGWVRQAPGKGLEWVAGIDAGGGTWRATAVKGRATISRDNGQSTVRLQLNNLRAEDTATYFCAKSTDSSANCCANSIDAWGHGTEVIVSS
VL: B1 VL
As for B2, the S:B Expression in experiment [1] is 11.1 S:B. Further, the S:B Binding in the experiment with CD81 is 0.4 S:B.

B3: Antibody of common light chain F10 (F10chicken) paired with the heavy chain against CD59 (antibody, V domains shown)
VH: AVTLDESGGGLQTPGGGLSLVCKASGFDFSSFDMVWVRQAPGKGLEWVAGISYSNTDTSYAPAVDGRATISRDNGQSTVRLQLNNLRAEDSATYYCAKSAGGCCYRADNIDAWGHGTEVIVSS
VL: B1 VL
For the molecule B3, the S:B Expression in experiment [1] was 12.2 S:B. In the experiment with CD59, the S:B Binding is 14.6 S:B.

B4: Antibody of common light chain F10 (F10chicken) paired with the heavy chain against CD63 (antibody, V domains shown)
VH: AVTLDESGGGLQTPGGALSLVCKASGFTFSDRGMHWVRQAPGKGLEWVAGIRSTGSFTLYGAAVKGRATISRDDGQSTLRLQLNNLRAEDTGTYYCAKSAGGYGCGRGWCGVDDIDAWGHGTEVIVSS
VL: B1 VL
As to B4, the S:B Expression in experiment [1] is 15.5 S:B. Further, in the experiment with CD63, the S:B Binding is 5.2 S:B.

B5: Antibody of common light chain F10 (F10chicken) paired with the heavy chain against IGSF8 (antibody, V domains shown)
VH: AVTLDESGGGLQTPGGGLSLVCKASGFSISSYEMQWVRQAPGKGLEWVAGIDDDGSSRAYAPAVKGRATISRDNGQSTVRLQLNNLRAEDTGTYYCAKTIYAATLNAGEIDAWGHGTEVIVSS
VL: B1 VL
For the molecule B5, the S:B Expression in experiment [1] was 11.9 S:B. Besides, the S:B Binding with IGSF8 was 1.6 S:B.

B6: Antibody of common light chain C11 (C11chicken) paired with the heavy chain against CD147 (antibody, V domains shown)
VH: AVTLDESGGGLQTPGGGLSLVCKASGFTFSSYAMYWVRQAPGKGLQWVAGISRDGSSGRYGAAVKGRATISRDNGQSTVRLQLNNLRAEDTATYFCAKSGYGDYTSADEIDAWGHGTEVIVSS
VL: ALTQPSSVSANPGETVKITCSGGGSWYGSYYYGWYQQKSPGSAPVTLIYNNDKRPSDIPSRFSGSESGSTATLTITGVQAEDEAVYFCGGYDSTTTDMFGAGTTLTVL
Take B6: the S:B Binding in the experiment with CD147 was 1.4 S:B.

B7: Antibody of common light chain B9 (B9chicken) paired with the heavy chain against CD147 (antibody, V domains shown)
VH: B6 VH
VL: ALTQPSSVSANPGETVKITCSGGGSSNYYGWYQQKSPGSAPVTLIYGTNKRPSDIPSRFSGSKSGSTGTLTITGVQADDEAVYFCGSADSSTNAGIFGAGTTLTVL
With B7, the S:B Binding with CD147 is 10.3 S:B.

B8: Antibody of common light chain F10 (F10chicken) paired with the heavy chain against CD147 (antibody, V domains shown)
VH: B6 VH
VL: B1 VL
B8: the S:B Expression in experiment [1] is 15.5 S:B. Moreover, the S:B Binding with CD147 was 5.7 S:B.
